Patent US20250041437A1 (SUN PHARMA ADVANCED RESEARCH, published 2025)
Substitutions are numbered along the chain they refer to.

B1: humanized IgG1 anti-MUC1-SEA mAb (HM5 LM4) (antibody, V domains shown)
VH: EIQLVQSGAEVKKPGSSVKVSCKVTGHSITRGSSWHWMRQAPGQGLEWIGYIHYGGGTSYNPSLKSRITITRDTSTNTFYMELSSLRSEDTAFYFCARYSYDITYRWFFDVWGQGTLVTVSS
VL: DIQMTQSPSTLSASVGDRVTITCRASQNIGTSIHWYQQKPGKAPKLLIKYASESISGVPSRFSGSGSGTEFTLTISSLQPDDFATYYCQQNNNWPLTFGQGTKVEIKR
notes: also called Humanized anti-MUC1 SEA IgG1; humanized IgG anti-MUC1-SEA mAb
B2: HM2 LM2 variant of humanized anti-MUC1 antibody SP66 (antibody, V domains shown)
VH: B1 VH with F79A
VL: DIQMTQSPSTLSASVGDRVTITCRASQNIGTSIHWYQQKPGKAPKLLIKRASESISGVPSRFSGSGSGTEFTLTISSLQPDDFATYYCQQNNNWPLTFGQGTKVEVK
notes: Humanized IgG expressed in CHO cells; only variable domains tied to the variant
B3: HM4 LM2 variant of humanized anti-MUC1 antibody SP66 (antibody, V domains shown)
VH: B1 VH with I68A, I70L
VL: B2 VL
notes: as for B2
B4: HM3 LM2 variant of humanized anti-MUC1 antibody SP66 (antibody, V domains shown)
VH: B1 VH with I68A, I70L, F79A
VL: B2 VL
notes: as for B2
B5: HM4 LM3 variant of humanized anti-MUC1 antibody SP66 (antibody, V domains shown)
VH: B1 VH with I68A, I70L
VL: B2 VL with R50Y
notes: as for B2
B6: HM5 LM3 variant of humanized anti-MUC1 antibody SP66 (antibody, V domains shown)
VH: B1 VH
VL: B2 VL with R50Y
notes: as for B2
B7: HM2 LM1 variant of humanized anti-MUC1 antibody SP66 (antibody, V domains shown)
VH: B1 VH with F79A
VL: B2 VL with Y36F
notes: as for B2
B8: HM5 LM2 variant of humanized anti-MUC1 antibody SP66 (antibody, V domains shown)
VH: B1 VH
VL: B2 VL
notes: as for B2

The binders below were run against T1, human MUC1 on cells (DA3-TM transfectants and human cancer cell lines SKOV3, COLO357, HT29 and others) (human, UniProt P15941 24-1255) (assay: flow cytometry, dose-dependent binding on MUC1 positive DA3-TM cells).
T1 construct: also called MUC1-SEA; surface MUC1
T1 sequence (P15941 24-1255 limits assumed): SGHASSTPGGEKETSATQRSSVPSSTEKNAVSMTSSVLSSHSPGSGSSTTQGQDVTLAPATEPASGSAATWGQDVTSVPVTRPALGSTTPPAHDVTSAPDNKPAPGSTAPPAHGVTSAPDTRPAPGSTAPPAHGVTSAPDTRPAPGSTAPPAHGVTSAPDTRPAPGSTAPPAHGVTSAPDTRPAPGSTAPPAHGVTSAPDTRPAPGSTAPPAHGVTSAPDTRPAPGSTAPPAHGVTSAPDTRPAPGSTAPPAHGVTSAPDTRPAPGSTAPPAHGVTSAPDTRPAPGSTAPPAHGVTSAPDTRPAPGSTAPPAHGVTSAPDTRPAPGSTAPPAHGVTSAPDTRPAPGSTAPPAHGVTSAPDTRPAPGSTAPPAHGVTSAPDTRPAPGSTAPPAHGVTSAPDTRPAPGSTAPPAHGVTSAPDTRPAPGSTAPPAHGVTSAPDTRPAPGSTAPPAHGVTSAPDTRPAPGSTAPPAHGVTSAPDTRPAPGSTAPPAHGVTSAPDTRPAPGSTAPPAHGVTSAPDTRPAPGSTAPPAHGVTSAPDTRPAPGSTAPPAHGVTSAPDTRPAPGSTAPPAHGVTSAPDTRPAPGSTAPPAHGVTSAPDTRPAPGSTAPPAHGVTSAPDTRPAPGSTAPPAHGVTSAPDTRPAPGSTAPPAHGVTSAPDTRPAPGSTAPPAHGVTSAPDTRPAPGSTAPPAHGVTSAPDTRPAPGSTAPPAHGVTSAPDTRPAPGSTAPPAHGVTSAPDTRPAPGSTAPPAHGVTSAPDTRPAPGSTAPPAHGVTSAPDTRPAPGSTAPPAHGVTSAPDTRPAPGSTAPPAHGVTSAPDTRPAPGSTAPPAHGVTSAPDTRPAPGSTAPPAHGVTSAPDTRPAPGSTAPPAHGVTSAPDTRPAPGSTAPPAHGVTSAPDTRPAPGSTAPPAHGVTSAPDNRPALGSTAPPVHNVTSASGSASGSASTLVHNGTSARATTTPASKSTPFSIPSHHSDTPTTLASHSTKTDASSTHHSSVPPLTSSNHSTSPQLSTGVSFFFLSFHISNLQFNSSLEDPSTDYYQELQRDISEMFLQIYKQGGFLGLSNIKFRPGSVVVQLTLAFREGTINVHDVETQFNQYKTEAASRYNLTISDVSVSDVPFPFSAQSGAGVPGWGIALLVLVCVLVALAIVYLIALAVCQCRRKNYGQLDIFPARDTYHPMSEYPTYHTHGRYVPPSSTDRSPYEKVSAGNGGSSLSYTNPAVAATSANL

Binder	Kd [nM]
B1	1
B2	3.2
B3	2.1
B4	3.7
B5	1.5
B6	0.9
B7	14.5
B8	1.4

What follows are binders tested against T1, human MUC1 on cells (DA3-TM …) (assay: flow cytometry on DA3-TM cells; table row 4 of 5, about 1.2 nM by the matching point in FIG. 3A).

Binder	Geometric Mean : FL6-A
B2	6400
B5	9700
B7	1870
B8	14600

Each binder was assayed against T1, human MUC1 on cells (DA3-TM …) (assay: flow cytometry on SKOV-3 cells, geometric mean against concentration).

Binder	EC50 (read off the curve) [nM]
B1	~3

These binders were tested against T1, human MUC1 on cells (DA3-TM …) (assay: flow cytometry on DA3-TM cells; table row 5 of 5, about 0.4 nM by the matching point in FIG. 3A).

Binder	Geometric Mean : FL6-A
B2	2860
B5	5320
B7	727
B8	7990

Each binder was assayed against T1, human MUC1 on cells (DA3-TM …) (assay: flow cytometry on DA3-TM cells; table row 3 of 5, about 3.7 nM by the matching point in FIG. 3A).

Binder	Geometric Mean : FL6-A
B2	11800
B5	17600
B7	4900
B8	21300

The binders below were run against T1, human MUC1 on cells (DA3-TM …) (assay: flow cytometry on DA3-TM cells; table row 2 of 5, about 11 nM by the matching point in FIG. 3A).

Binder	Geometric Mean : FL6-A
B2	15000
B5	22300
B7	10000
B8	23700
